According to patent US20110008841A1:

Target: chimera L
Assay: Bio-Plex titration on bead-captured chimera; cell bold and boxed = binding lost

B1: AMH26/AML26 (antibody, IgG2, V domains shown)
VH: QVQLVESGGGLVKPGGSLRLSCAASGFTFSDYYMSWIRQAPGKGLEWVSYISSSGSTIYYADSVKGRFTISRDNAKNSLYLQMNSLRAEDTAVYYCARDRTYYFGSGSYEGMDVWGQGTTVTVSS
VL: EILMTQSPATLSVSPGERATLSCRASQSVYSNLAWYQQKPGQAPRLLISGASTRATGIPARFSGSGSGTEFTLTISSLQSEDFAVYYCQQYYNWPWTFGQGTKVEIK
Q: With B1 as the binder, how does the EC50 cell marked as binding lost although the number is below wild type read?
A: 6 pM
